Results as given in paper doi:10.1101/2020.11.25.397760 (bioRxiv, 2020).

Target: the molecule itself
Assay: electron microscopy

B1: FliP (natural protein, Salmonella enterica serovar Typhimurium)
chain: QLPGLISQPLAGGGQSWSLSVQTLVFITSLTFLPAILLMMTSFTRIIIVFGLLRNALGTPSAPPNQVLLGLALFLTFFIMSPVIDKIYVDAYQPFSEQKISMQEALDKGAQPLRAFMLRQTREADLALFARLANSGPLQGPEAVPMRILLPAYVTSELKTAFQIGFTIFIPFLIIDLVIASVLMALGMMMVPPATIALPFKLMLFVLVDGWQLLMGSLAQSFYS
  binding result: binds
